Patent publication US8084228B2, “Nogo-B receptor antagonists” (Yale University, priority 2006, dated 2011)
Each block holds one molecule with its values, some of them ahead of it.

How the values were obtained:
[1] = Lipid transferase activity, [1-14C]IPP incorporation into polyprenyl diphosphates; format: biochemical; settings: 1 μg immunoisolated protein, 20 minutes at 37° C.
Procedure: NgBR and NgBR lacking the cytoplasmic domain (NgBR-CD) was immunoisolated from CHO cells expressing NgBR-HA or NgBR-CD by using anti-HA matrix beads. Lipid transferase activity was measured by determining the amount of [1-^14C]IPP (isopentenyl pyrophosphate) incorporated into butanol-extractable polyprenyl diphosphates. The activity was assayed in a 50 μL reaction containing 50 mM Hepes, pH 7.5, 2 mM MgCl2, 5 mM KF, 1 mM DTT, 0.5% CHAPS, 50 μM [1-^14C]IPP (0.15 μCi per reaction) and 50 μM allylic isoprenoid diphosphate (farnesyl diphosphate, geranylgeranyl diphosphate). The reaction was started by the addition of 1 μg of protein and allowed to proceed for 20 minutes at 37° C. Mouse liver extract (1 μg) was used as a positive control for the assay. The reaction was stopped by the addition of 0.5 mL of 1-butanol saturated with water, […] followed by the addition of 0.5 mL of 2 M KCl. An aliquot of the butanol phase was removed for scintillation counting using SafeScint scintillation (American Bioanalytic, Natick, Mass.).

HUVEC [2] = test: HUVEC migration in modified Boyden chambers; format: cell-based, human; settings: recombinant Am-Nogo-B at various concentrations, 5 hours; similar in magnitude to 1.1 nM VEGF
Procedure: The migratory response of human umbilical vein endothelial cells (HUVEC) in response to a gradient of recombinant, purified alkaline phosphatase (AP) fusion protein expressing Am-Nogo-B or a recombinant purified Am-Nogo-B was examined. HUVEC were cultured in M199 with 20% FBS and endothelial cell growth supplement (ECGS).
(§1) Cell migration was examined in modified Boyden chambers using 10 nM each of purified recombinant AP, AP fusion of Nogo-66 (AP-Nogo-66) or Am-Nogo-B. The transwell inserts (Costar transwell inserts; Corning) were coated with a solution of 0.1% gelatin (Sigma) in PBS at 4° C. overnight and then air-dried. VEGF at 50 ng/mL (1.1 nM) or recombinant Am-Nogo-B at various concentrations dissolved in medium 199 containing 0.1% BSA was added in the bottom chamber of the Boyden apparatus. HUVEC (200,000 cells) suspended in a 100 μL aliquot of medium 199 containing 0.1% BSA was added to the upper chamber. After 5 hours incubation, cells on both sides of the membrane were fixed and stained with a Diff-Quik staining kit (Baxter Healthcare, Miami, Fla.). The average number of cells from five randomly chosen high-power (×400) fields on the lower side of the membrane was counted.

NgBR-HA = molecular target: T1, NgBR-HA (Homo sapiens, UniProt Q96E22); test: Immunoisolation of NgBR-HA from CHO cell extracts incubated with purified Am-Nogo-B, Western blot; format: binding; settings: lysates of vector or NgBR-HA-transfected CHO cells, 25 μg Am-Nogo-B-myc
T1 construct: CHO cells stably expressing full-length NgBR with a C-terminal HA tag (CHO-NgBR-HA); expressed in transfected cells; host or cells: CHO
T1 sequence (Q96E22 1-293): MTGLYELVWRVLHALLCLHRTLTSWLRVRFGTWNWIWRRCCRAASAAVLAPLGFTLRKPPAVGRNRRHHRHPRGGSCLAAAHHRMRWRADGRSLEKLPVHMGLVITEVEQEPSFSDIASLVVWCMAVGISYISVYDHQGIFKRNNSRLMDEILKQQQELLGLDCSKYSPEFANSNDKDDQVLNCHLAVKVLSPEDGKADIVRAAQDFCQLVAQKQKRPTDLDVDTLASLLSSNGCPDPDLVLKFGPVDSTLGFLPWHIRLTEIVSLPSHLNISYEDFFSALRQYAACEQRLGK
Procedure: Single NgBR cDNA clones were isolated by sib selection and sequenced. A NgBR-HA was created in pIRESneo vector (BD, Palo Alto, Calif.), with the HA tag at the carboxy terminus. To access the physical interaction of NgBR with Am-Nogo-B, 50 μg of solubilized extracts of CHO cells expressing control vector (pIRESneo) or NgBR-HA was incubated with 25 μg of purified Am-Nogo-B or buffer for 2 hours at room temperature. The HA-tagged NgBR was immunoisolated with anti-HA immunobeads (Roche, Indianapolis, Ind.) and associated proteins analyzed by Western blotting. For the Western blots, expression of NgBR-HA was detected by using anti-HA (Roche) and NgBR (Imgenex), respectively, and beta-actin (Sigma) or Hsp90 (BD Biosciences-Pharmingen) was used to control for loading.

[3] = test system: CHO cells expressing NgBR; test: Chemotaxis of CHO cells and CHO cells expressing NgBR in a Boyden chamber; format: cell-based; settings: CHO cells versus CHO cells expressing NgBR
Procedure: as §1
Using the method described above, CHO cells and CHO cells expressing NgBR were placed into a Boyden chamber and the chemotactic response to soluble Am-Nogo-B was examined.

HUVEC [4] = test: Tube formation of HUVEC in 3-D collagen cultures (total network length); format: cell-based, human; settings: Am-Nogo-B 80 nM, 1-2 days
Procedure: HUVEC were resuspended (final concentration of 1×10^6) in a mixture containing rat tail type I collagen (1.5 mg/mL) 1/10 volume of 10×M199 and 1 M Hepes, neutralized with NaOH. Droplets (0.1 mL each) of the cell/collagen mixture were placed in cell culture dishes and allowed to polymerize for 15 minutes at 37° C. Growth medium containing either vehicle or agonist was then added to each well. HUVEC were allowed to form tube-like structures for 1-2 days. To evaluate tube formation in 3-D cultures, cells were photographed using the program OPENLAB (Improvision) and total-network length, defined as an elongation of cell into tube-like structures typically seen in 3-D cultures, was quantified in five fields for each replicate per experiment by using the measurement tools provided with OPENLAB.

A549 cells [5] = test: Growth in culture of A549 cells engineered to secrete Am-Nogo-B; format: cell-based, human; settings: A549 cells secreting Am-Nogo-B versus vector control
Description: Human A549 cells were stably transfected with vector alone (control) or a vector encoding a secreted form of Am-Nogo-B. The production of Am-Nogo-B and the effects on A549 cell growth in culture were examined.

A549 cells [6] = test: Tumors of A549 cells engineered to secrete Am-Nogo-B in immunodeficient mice; format: in vivo
NgBR [7] = molecular target: T2, NgBR (Homo sapiens, UniProt Q96E22); test: AP fusion protein binding to CHO cells expressing NgBR; parameters: an isolated cDNA encoding NgBR is 2,636 base pairs encoding an open reading frame of 293 amino acids; expressed in transfected cells; settings: increasing concentrations of purified Am-Nogo-B
T2 sequence (Q96E22 1-293): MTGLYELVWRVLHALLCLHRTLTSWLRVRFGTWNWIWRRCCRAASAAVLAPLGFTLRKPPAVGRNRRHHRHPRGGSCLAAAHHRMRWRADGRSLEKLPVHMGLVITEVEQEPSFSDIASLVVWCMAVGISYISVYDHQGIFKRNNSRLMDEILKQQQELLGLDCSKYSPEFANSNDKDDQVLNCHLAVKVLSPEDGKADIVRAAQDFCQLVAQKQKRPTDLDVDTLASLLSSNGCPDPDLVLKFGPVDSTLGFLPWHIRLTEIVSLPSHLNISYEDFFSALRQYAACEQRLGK
Procedure: (§2) To detect AP-Am-Nogo-B binding, cultures were washed with Hanks' balanced salt solution (HBSS) containing 20 mM HEPES, pH 7.5, and 1 mg/mL BSA (HBH). The plates were then incubated with AP-Am-Nogo-B in DMEM containing 20 mM Hepes, pH 7.5, and 1 mg/mL BSA for 2 hours at 4° C. The bound AP-Am-Nogo-B was detected by using the Blue Substrate kit (Vector Laboratories). The blue staining was examined by using the ODYSSEY Infrared Imaging System (Li-Cor, Lincoln, Nebr.) and confirmed by microscopy. Alternatively, the bound AP-Am-Nogo-B was extracted with Triton X-100, and AP activity was colorimetrically quantified by using p-nitrophenyl phosphate (Sigma) as substrate after heat inactivation of endogenous AP. Non-specific binding was determined by measuring binding in the presence of a 100-fold molar excess of recombinant Am-Nogo-B lacking the AP fusion protein. Specific binding was determined by subtracting the non-specific binding from total binding. For determination of apparent Kd, the binding of AP-Am-Nogo-B was measured in triplicate as described above and the Kd value was quantified by using the Scatchard plot program of GraphPad PRISM (one-site binding, linear regression) using the ratio of bound ligand to free ligand as the y axis and bound ligand (pM) as the x axis.
A recombinant AP-Am-Nogo-B fusion protein was used to screen a cDNA expression library from human heart (500,000 independent clones) transfected into COS or CHO cells using Lipofectamine 2000 (Invitrogen). COS-7 cells were cultured in high-glucose DMEM with 10% FBS. CHO cells were cultured in MEM-α with 5% FBS.

NgBR [8] = molecular target: T2, NgBR; test: AP fusion protein binding to COS cells transfected with the isolated NgBR cDNA; parameters: an isolated cDNA encoding NgBR is 2,636 base pairs encoding an open reading frame of 293 amino acids; expressed in transfected cells; host or cells: COS-7 (A4); settings: COS cells (FIG. 6)
Procedure: as §2
For expression cloning of Am-Nogo-B receptor, pools of 5,000 arrayed clones from a human heart cDNA library (OriGene Technologies, Rockville, Md.) were transfected into COS-7 cells, and AP-Am-Nogo-B binding was assessed by using AP versus AP-Am-Nogo-B binding and detection of the AP product by near-infrared cell imaging (Li-Cor, Lincoln, Nebr.) or AP activity assays.
Single NgBR cDNA clones were isolated by sib selection and sequenced. […] The HA-tagged NgBR was immunoisolated with anti-HA immunobeads (Roche, Indianapolis, Ind.) and associated proteins analyzed by Western blotting. For the Western blots, expression of NgBR-HA was detected by using anti-HA (Roche) and NgBR (Imgenex), respectively, and beta-actin (Sigma) or Hsp90 (BD Biosciences-Pharmingen) was used to control for loading.

Endothelial cells [9] = test: Am-Nogo-B-induced migration of endothelial cells, inhibition by NgBR ectodomain peptides or fusion protein; format: cell-based; settings: endothelial cells (FIG. 35)
Procedure: as §1
Endothelial cells were incubated with vehicle (control) of one of peptides P1-P4 (200 nM each) in the presence of Am-Nogo-B (100 nM).
Similarly, treatment of endothelial cells with mFc-ecto, but not mFc, blocked Am-Nogo-B-induced cell migration (FIG. 35).

Endothelial cells [10] = test: Blocking of AP-Am-Nogo-B binding to endothelial cells; settings: 20 nM and 100 nM
Procedure: as §2, with “axis. […]” for “axis.”

[11] = A549 tumors expressing Am-Nogo-B

B1: NgBR: human Nogo-B receptor, 293 amino acids, SEQ ID NO:1; immunoisolated as NgBR-HA from CHO cells (protein, listed as Homo sapiens)
chain: MTGLYELVWRVLHALLCLHRTLTSWLRVRFGTWNWIWRRCCRAASAAVLAPLGFTLRKPPAVGRNRRHHRHPRGGSCLAAAHHRMRWRADGRSLEKLPVHMGLVITEVEQEPSFSDIASLVVWCMAVGISYISVYDHQGIFKRNNSRLMDEILKQQQELLGLDCSKYSPEFANSNDKDDQVLNCHLAVKVLSPEDGKADIVRAAQDFCQLVAQKQKRPTDLDVDTLASLLSSNGCPDPDLVLKFGPVDSTLGFLPWHIRLTEIVSLPSHLNISYEDFFSALRQYAACEQRLGK
modifications: HA tag
notes: immunoisolated as NgBR-HA from CHO cells
lipid transferase activity [1]: negative

displacement of the binding of 10 nM AP-Am-Nogo-B from transfected CHO cells (NgBR [7]): dose-dependently displaced | binding to COS cells transfected with the isolated NgBR cDNA (NgBR [8]): afforded the binding
B2: Am-Nogo-B: Residues 1-200 of Nogo-B, the amino terminus; recombinant, purified, with Myc-His tag (protein)
chain: MEDLDQSPLVSSSDSPPRPQPAFKYQFVREPEDEEEEEEEEEEDEDEDLEELEVLERKPAAGLSAAPVPTAPAAGAPLMDFGNDFVPPAPRGPLPAAPPVAPERQPSWDPSPVSSTVPAPSPLSAAAVSPSKLPEDDEPPARPPPPPPASVSPQAEPVWTPPAPAPAAPPSTPAAPKRRGSSGSVVVDLLYWRDIKKTGV
modifications: left off: small tags and cut ends
notes: Residues 1-200 of Nogo-B, the amino terminus; recombinant, purified, with Myc-His tag
HUVEC migration, dose dependence (HUVEC [2]): dose-dependently increases migration | physical interaction with NgBR-HA (immunopurification) (NgBR-HA): interacted with lysates only when the receptor was expressed | chemotactic response to soluble Am-Nogo-B [3]: transfection of NgBR was required | tube formation (HUVEC [4]): stimulated an increase in tube formation | basal growth of A549 cells in culture (A549 cells [5]): did not effect the basal growth | growth rate of tumors in vivo (A549 cells [6]; A549 cells secreting Am-Nogo-B versus vector control, immunodeficient mice): increased the growth rate of tumors | lymphangiogenesis (LYVE-1 staining) (A549 cells [6]; [11]): reduced lymphangiogenesis | tumor angiogenesis (PECAM-1-positive tumor cells) (A549 cells [6]; [11]): increased angiogenesis | tumor associated macrophages (F4/80 positive cells) (A549 cells [6]; [11]): increase tumor associated macrophages

B3: mFc-ecto: Fc fusion of amino acids 52-116 of NgBR (SEQ ID NO:1), HA-, heptahistidine tagged fusion protein (protein)
chain: LGFTLRKPPAVGRNRRHHRHPRGGSCLAAAHHRMRWRADGRSLEKLPVHMGLVITEVEQEPSFSD
modifications: also: Fc fusion, HA tag, heptahistidine tag
Am-Nogo-B-induced cell migration in presence of Fc protein (Endothelial cells [9]): blocked | binding of AP-Am-Nogo-B to endothelial cells in presence of Fc protein (Endothelial cells [10]): blocked
